PMC11245101
Where “and” joins values, the source holds several entries; their conditions need not be identical. Equal entries are not always repeated.

Key:
Test in all cases: AUC
[1] = target: TDP-43 CTD S→E S305C, disulfide cross-linked dimer (human)
[2] = target: TDP-43 CTD S→E S317C, disulfide cross-linked dimer (human)
[3] = target: TDP-43 CTD S→E S273C, disulfide cross-linked dimer (human)

TDP-43 CTD S→E S305C, disulfide cross-linked dimer (domain or fragment)
Kd dimer-tetramer [1]: 58 µM
Kd tetramer-octamer [1]: 4.7 µM
stoichiometry N [1]: 4 and 8

TDP-43 CTD S→E S317C, disulfide cross-linked dimer (domain or fragment)
Kd [2]: 46 µM
stoichiometry N [2]: 4

TDP-43 CTD S→E S273C, disulfide cross-linked dimer (domain or fragment)
fraction of tetramer [3]: < 1%
